Test results reported in a protein production outcome set (Wang et al. 2014).

Experiment: label from the status in PepcDB records

Sequence: RQVQKELGDVLVRLHNPVVLTPTTVQVTWTVDRQPQFIQGYRVMYRQTSGLQATSSWQNLDAKVPTERSAVLVNLKKGVTYEIKVRPYFNEFQGMDSESKTVRTTEE
- protein production: not failed

Sequence: MIPYLYVLAAAFLWGTSFVAGKIAFGVADAPLIVLARFAMAGLFWLPVFCRSVRSVPSSRWGALLLLSFLMIPATFLLQFMGLQYTSATSATLMIGFEPLMVMLVGWLIWREQMTALHLLLGTVALAGVLLVMGWPSGANFLGCLLVLLSTVVVAIWVRWSKIWMQSLSVNAFTALTTVLGTIMLIPFALFLTNDWQVNLSTQGASALLYLGVGCSLGAGWLWNMGMRSIPANAGGMFLALEPIFGVIFAVALLYEPLGATTLAGIGLVVIPVLVISVLPVLQARRLPEAC
- protein production: failed

Sequence: SQELTLSPGPAKLTPTLDPTHRMELILSTSPAELTLDPACQPKLPLDSTCQPEMTFNPGPTELTLDPEHQPEETPAPSLAELTLEPVHRRPELLDACADLINDQWPRSRTSRLHSLGQSSDAFPLCLMLLSPHPTLEAAPVVVGHARLSRVLNQPQSLLVETVVVARALRGRGFGRRLMEGLEVFARARGFRKLHLTTHDQVHFYTHLGYQLGEPVQGLVFTSRRLPATLLNAFPTAPSPRPPRKAPNLTAQAAPRGPKGPPLPPPPPLPECLTISPPVPSGPPSKSLLETQYQNVRGRPIFWMEKDI
- protein production: not failed

Sequence: MSRPRLELGTWGKITRTEVAEGKHRARARFRDFTGKTRQVEAYGASGAKAERQLLANLRSRVESAGDTISGNTTVSSLGKIWTGNLGKSDEHTEQTIERYESIVEKIIGPALGEYLIMEATVSRVDGFLRALADKTPGRAKTTKSVLKSMFDLAVRHDALRTNPVREVRLPTKRKKPVQALTIDEVGTLREGLRKWQAADGVKGPTRSTELLDVVDLMLGTGMRIGEVLALRWSDVDLGEHPRLTVSGTLVPIKEKGLRRQAHTKTASGFRVLTLPAFVVEVLLRRSVESIPTETNAVFPSGAGTWKWPNNYRRALRAALKEMENTSGITPHVFRKSVATLIDAEATLEAAAAVLGHSGTGVTSAHYVAKAATAPDMSSILDQFGGNRIQKDG
- protein production: failed

Sequence: MASNRGAGGSLYGGADPYRSREGLSTRNASGSEEIQLRIDPMHSDLDDEILGLHGQIAQEIGSEAKSQRDFLDELQMTLIRAQAGVKNNIRKLNLSIIRSGNNHIMHVVLFALLLFFILYMWSKMFKR
- protein production: failed

Sequence: MKFDNYIFDFDGTLADTKKCGEVATQSAFKACGLTEPSSKEITHYMGIPIEESFLKLADRPLDEAALAKLIDTFRHTYQSIEKDYIYEFAGITEAITSLYNQGKKLFVVSSKKSDVLERNLSAIGLNHLITEAVGSDQVSAYKPNPEGIHTIVQRYNLNSQQTVYIGDSTFDVEMAQHAGVPSAAVTWGAHDARSLLHSNPDFIINDPSEINTVL
- protein production: failed

Sequence: MNLLVTSSLGVLLHLVVLCQADDHSELLVNTKSGKVMGTRVPVLSSHISAFLGIPFAEPPVGNMRFRRPEPKKPWSGVWNASTYPNNCQQYVDEQFPGFSGSEMWNPNREMSEDCLYLNIWVPSPRPKSTTVMVWIYGGGFYSGSSTLDVYNGKYLAYTEEVVLVSLSYRVGAFGFLALHGSQEAPGNVGLLDQRMALQWVHDNIQFFGGDPKTVTIFGESAGGASVGMHILSPGSRDLFRRAILQSGSPNCPWASVSVAEGRRRAVELGRNLNCNLNSDEELIHCLREKKPQELIDVEWNVLPFDSIFRFSFVPVIDGEFFPTSLESMLNSGNFKKTQILLGVNKDEGSFFLLYGAPGFSKDSESKISREDFMSGVKLSVPHANDLGLDAVTLQYTDWMDDNNGIKNRDGLDDIVGDHNVICPLMHFVNKYTKFGNGTYLYFFNHRASNLVWPEWMGVIHGYEIEFVFGLPLVKELNYTAEEEALSRRIMHYWATFAKTGNPNEPHSQESKWPLFTTKEQKFIDLNTEPMKVHQRLRVQMCVFWNQFLPKLLNATACDGELSSSGTSSSKGIIFYVLFSILYLIF
- protein production: not failed

Sequence: MTDNSPPPNGHAQARVRKNNTFLSAVWLVPLIALIAGGWLWVKEIRNRGPVVTLLMDSAEGIEVNNTVIKVLSIDVGRVTRIKLRDDQKGVEVTAQLNADVSGLIRSDTQFWVVKPRIDQSGVTGLGTLLSGSYIAFTPGKSDEAKDVFQVQDIPPVTAIGQSGLRLNLIGKNDRILNVNSPVLYENFMVGQVESAHFDPSDQSVHYTIFIQSPNDKLIHSASRFWLESGINIETTGSGIKLNSAPLPALLSGAISFDSPKTKNSKNVKSEDSFTLYDSRSEVANLPDDRSLYYTAFFKQSVRGLTVGSPVEYKGLNVGVVSDVPYFDRNDSLHLFENGWIPVRIRIEPSRLEINADEQSKEHWKQQFQTALNKGLTATISSNNLLTGSKMIELNDQPSASPKLRPHTVYAGDTVIATQGGGLDDLQVKLADLLDKFDKLPLDKTVAELNGSLAELKSTLKSANAALSSIDKLVGKPQTQNIPNELNQTLKELRTTLQGVSPQSPIYGDVQNTLQSLDKTLKDVQPVINTLKEKPNALIFNSSSKDPIPKGSR
- protein production: failed

Sequence: MQFLNQSLGFFNKGCFEPIDRNFITESYQALKPIEEIQNKYNKHDNDSFLNELRDSMVALYLDYELINIQKHGLDAKRSSSDEFLEIKQVSFQSQLIKEFEFKMKPIDSKEQELINLFNLKFGHFSWENYLA
- protein production: failed

Sequence: LPSDVTEGKTVFIRNLSFDSEEEALGEVLQQFGDLKYVRVVLHPDTEHSKGCAFAQFMTQEAAQKCLAAASLEAEGGGLKLDGRQLKVDLAVTRDEAA
- protein production: not failed

Sequence: MNLKQAFIDNNSIRLGLSADTWQEAVRLAVQPLIDSKAVTSAYYDAIIASTEKYGPYYVLMPGMAMPHAEAGLGVNRNAFALITLTKPVTFSDGKEVSVLLTLAATDPSIHTTVAIPQIVALFELDNAIERLVACQSPKEVLEMVEESKDSPYLEGMDLNA
- protein production: not failed
